The source of these data is PMC3828196 (PLoS ONE, 2013).

The target of data set [1] is T1, EcDsbA (Escherichia coli, UniProt P0AEG4).
T1 construct: lacking the periplasmic leader signal were purified as described for KpDsbA; His6-TEV leader (inferred: same procedure as KpDsbA) (N, cleaved yes); made in house; host or cells: E. coli BL21(DE3)pLys (inferred from 'as described for KpDsbA')
Description: biochemical. The data set is classed as binding, E. coli. As to conditions: ITC; range stated for KpDsbA and EcDsbA with […] and […] together; read-out: Kd (range over both peptides and both DsbAs). The protocol:
(§1) Amidation and acetylation ensure that there are no charges on the peptide termini, as these are not present in the native DsbB loop sequence. Binding affinity was measured using a MicroCal™ Auto-iTC200 from (GE Healthcare, USA) at 25 °C. The sample cell was loaded with 200 μL of 100 μM KpDsbA or EcDsbA in 25 mM HEPES, 50 mM NaCl, pH 7.4, and DMSO 0.8 %. The peptide (3 mM) diluted in the same buffer was titrated with an initial injection of 0.5 μL into DsbA, followed by 19 consecutive injections (2.0 μL) offset by 180 s, while the solution was constantly stirred (1000 rpm). Data were fitted to a single-site binding model using MicroCal™ Origin 7.0 software (Origin 7 SR4 v7.0552).

Data set [2] addresses KpDsbA. Description: ITC binding of DsbB-derived peptides to KpDsbA. Further details: species or system K. pneumoniae. The protocol: as §1, with “v7.0552). Experiments were conducted in triplicate and affinity and thermodynamic parameters are reported as means and standard deviations (Table 4).” for “v7.0552).”
Data set [3] can be described thus: In vitro peptide dithiol oxidation (europium fluorescence). The format is biochemical. The note with it: samples lacking EcDsbB, DsbA plus peptide; pH 5.5; time-resolved fluorescence. The procedure:
A peptide ([…]) with a 1,4,7,10-tetraazacyclododecane-1,4,7,10-tetraacetic acid (DOTA) group amide-coupled to the N-terminus, and a methylcoumarin amide-coupled to the ε-amino group of the C-terminal lysine, was purchased from AnaSpec (Fremont, CA). Lyophilized peptide was re-suspended in 100 mM imidazole, pH 6, at a concentration of 2 mM. Europium trifluoromethanesulfonate (Sigma Aldrich, Australia) solution (100 mM) was added to the peptide at a molar ratio of 2:1 and incubated for 5 min at room temperature, to allow europium chelation. The peptide solution was then immediately aliquoted, flash frozen in liquid nitrogen and stored at -80°C. An increase in fluorescence occurs upon oxidation of the peptide cysteines to form a disulfide. Thus, fluorescence can be used to monitor the capacity of DsbA enzymes to catalyse dithiol oxidation.
Assays were conducted using a Synergy H1 multimode plate reader (BioTek, USA) with the excitation wavelength set to 340 nm and emission to 615 nm. A 150 μs delay before reading and 100 μs reading time were used for time-resolved fluorescence. The assay was performed in a white 384-well plate (Perkin Elmer OptiPlate-384, Part #: 6007290). The buffer consisted of 50 mM MES, 50 mM NaCl and 2 mM EDTA at pH 5.5. The reaction consisted of a 50 μL solution in each well, containing 160 nM EcDsbA, KpDsbA or SeDsbA, 1.6 μM EcDsbB (crude membrane extracts, containing ubiquinone) and 8 μM peptide substrate added last to initiate the reaction. Samples containing buffer and DsbA or buffer and peptide were used as controls. Data were measured for three replicates and are presented as mean values, with the standard error of the mean indicated by error bars.

In data set [4] the test system is E. coli dsbA- null (JCB817). Briefly: Complementation swarming assay, dsbA- null strain JCB817. As to conditions: pBAD33, arabinose-induced; soft M63 minimal agar, 37 °C, 3-7 h; biological triplicates.
Description: The ability of KpDsbA to rescue non-motile E. coli dsbA ^- null (JCB817) and dsbA ^-/dsbB ^- double-null (JCB818) strains was assessed in a cell-swarming assay as described previously [16]. The mature KpDsbA coding sequence was cloned into pBAD33 under an arabinose inducible promotor with the EcDsbA periplasmic signal sequence. A wild-type EcDsbA cloned into pBAD33 vector was used as a positive control. Non-motile E. coli dsbA ^- deficient (JCB817) or dsbA ^- / dsbB ^- double-mutant (JCB818) [3] cells (2x10^6) transformed with a KpDsbA or EcDsbA pBAD33 inducible vector were spotted onto the center of a soft M63 minimal agar plate containing 40 mg/mL of each amino acid (except L-cysteine). Plates were incubated at 37 °C and motility of cells monitored using a Molecular Imager® Gel Doc™ system from BIO-RAD (CA 94547, USA) after 3-7 h. Complementation experiments were repeated as biological triplicates.
Data set [5] has as its system insulin. Briefly: Insulin disulfide reductase activity. The data set is classed as biochemical. As to conditions: 10 μM enzyme, 0.33 mM DTT, 2 mM EDTA, 100 mM phosphate pH 7.0, 0.131 mM insulin; OD650nm turbidity; three repeats. The protocol: Under mild reducing conditions, DsbA proteins can reduce the intermolecular disulfide bonds formed between insulin chains A and B [3]. The rate of disulfide bond reduction can be spectroscopically followed at OD650nm by an increase in turbidity resulting from production of the insoluble insulin chain B [20]. Samples were prepared in 1 cm cuvettes containing 10 μM of protein (KpDsbA, EcDsbA or EcDsbC), 0.33 mM DTT and 2 mM EDTA in 100 mM NaH2PO4 / Na2HPO4 titrated to pH 7.0. Catalysis was initiated by the addition of 0.131 mM insulin (I0516, Sigma-Aldrich, Australia) to the sample mixture. The assay was repeated three times and data were plotted showing standard deviations.

Data set [6] relates to insulin. As to conditions: cited from earlier work.
For data set [7] the following is noted: EcDsbA, cited from earlier work. From the text:
The past 5 years has seen the characterization of DsbA enzymes from many other bacteria including DsbAs with varying degrees of sequence identity to EcDsbA such as Neisseria meningitidis DsbA1 (NmDsbA1, 23% identity), Pseudomonas aerugin ... || EcDsbA and SeDsbA share 86 % sequence identity and both have been characterized previously. […] Both are similarly oxidizing enzymes: the redox potentials of EcDsbA and SeDsbA are -122 and -126 mV, respectively, whereas the range for all DsbAs is -80 to -163 mV (Table 1 ). In b ... || (+ 1 further places)

“Also recorded” adds a separate entry of the source. Read-outs that look alike come from different tables or passages of the source.

Consider `CC(=O)N1CCC[C@H]1C(=O)N[C@@H](CO)C(=O)N1CCC[C@H]1C(=O)N[C@@H](Cc1ccccc1)C(=O)N[C@@H](CCC(N)=O)C(=O)N[C@H](C(=O)N[C@@H](CS)C(=O)N[C@@H](CC(=O)O)C(N)=O)[C@@H](C)O`, for which the Kd in data set [1] is 11 to 18 µM; in data set [2] (ITC (Auto-iTC200), cell 100 μM KpDsbA, peptide 3 mM, 25 mM HEPES, 50 mM NaCl, pH 7.4, DMSO 0.8 %, 25 °C in method, 20 °C in table footnote, single-site model, apparent Kd, mean ± SD, three independent experiments, read-out: Kd), 16.7 ± 0.6 µM; in data set [2] (ITC, range stated for KpDsbA and EcDsbA with PSPFATCD and PSPFQTCD together, read-out: Kd (range over both peptides and both DsbAs)) it was 11 to 18 µM.

B1: EcDsbA: Escherichia coli DsbA (CAA56736) (protein)
chain: AQYEDGKQYTTLEKPVAGAPQVLEFFSFFCPHCYQFEEVLHISDNVKKKLPEGVKMTKYHVNFMGGDLGKDLTQAWAVAMALGVEDKVTVPLFEGVQKTQTIRSASDIRDVFINAGIKGEEYDAAWNSFVVKSLVAQQEKAAADVQLRGVPAMFVNGKYQLNPQGMDTSNMDVFVQQYADTVKYLSEKK
On to B1, for which, in data set [3], the “dithiol oxidation signal without EcDsbB” value is on record as “no increase in signal”. For the same molecule, the “restoration of motility (swarming)” value in data set [4] is given as “can rescue the swarming”. In addition, the “insulin disulfide reductase activity” value in data set [5] is “weak insulin reductase activity”. Further, the insulin reductase activity result in data set [6] is recorded as “weak disulfide reductants; also recorded: weak insulin reductase activity”. The “E°’ (redox potential)” value in data set [7] (Table 1, ref [6], [14]) is given as -122 mV. Moreover, the Tm oxidized in data set [7] (Table 1, ref [6], [14]) is on record as 341 K; in data set [7] (with spread, ref [7]) it was 341.7 ± 0.2 K; in data set [7] (ref [13]), 341 K. Further, the Tm reduced in data set [7] (Table 1, ref [6], [14]) is recorded as 350 K; in data set [7] (with spread, ref [7]), 350.9 ± 0.2 K; in data set [7] (ref [13]), 350 K. Further, in data set [7] (Table 1 and comparison, ref [6], [14]), the “pKa “Cys30”” value is on record as 3.3. Further, the “pKa of nucleophilic cysteine” value in data set [7] (introduction, ref [9]) is 3.3; in data set [7] (ref [7]), 3.3. Also, the redox potential in data set [7] (ref [9]) is -122 mV.
